In patent US20160251435A1 (INHIBRX, published 2016):
Where a chain is given by its changes, count along the chain named. One block for each binder: values may come before it.

Legend:
[1] = molecular target: T1, human CD47, endogenous cell surface form (Raji, CCRF-CEM cells) (human, UniProt Q08722 19-323); test: flow cytometry on CCRF-CEM cells, FITC anti-mouse IgG, MFI-FL1
T1 construct: the cells carry endogenous CD47; also called cell surface CD47
Description: Bound CD47 antibodies were detected using a FITC conjugated anti-mouse IgG secondary antibody (Jackson ImmunoResearch).

[2] = molecular target: T1, human CD47, endogenous cell surface …; test: apparent KD, flow cytometry on Raji cells, non-linear fit of median fluorescence
[3] = molecular target: T1, human CD47, endogenous cell surface …; test: flow cytometry blocking: SIRPa-Fc binding to CCRF-CEM cells with rising antibody
[4] = molecular target: T2, recombinant His-tagged-CD47-IgV (human, UniProt Q08722 19-134); test: blocking ELISA: SIRPa-Fc binding to immobilised His-CD47-IgV with rising antibody
T2 construct: not shown: His tag

[5] = molecular target: T1, human CD47, endogenous cell surface …; test: flow cytometry on Raji cells (CD20-gated), signal normalised to the maximum of the antibody on that cell population
Protocol: (§1) Cynomolgus peripheral blood mononuclear cells (PBMCs) were isolated from cynomolgus whole blood by ficoll-paque gradient centrifugation. […] Cells were analyzed by flow cytometry, first gated on live cells by FSC and SSC, then on cells positive for FL4 (CD20 positive), and lastly the median FL1 (CD47 positive) was measured. The data were normalized by dividing the signal at each concentration by the maximum signal for each antibody on each cell population.

[6] = molecular target: T3, cynomolgus monkey CD47 on cynomolgus B-cells (cynomolgus monkey, UniProt A0A5F8AK49 19-323 (rhesus entry)); test: flow cytometry on cynomolgus B-cells (CD20-gated PBMC), signal normalised to the maximum of the antibody on that cell population
T3 construct: whole, on cells; also called cyno CD47
Protocol: as §1

[7] = molecular target: T1, human CD47, endogenous cell surface …; test: flow cytometry on Raji cells, MFI (FL4)
Protocol: (§2) Humanized antibodies were tested for their ability to bind Raji cells by flow cytometry (FIG. 7). […] Apparent affinities were determined by non-linear fits (Prism Graphpad Software) of the median fluorescence intensities at various antibody concentrations.

[8] = molecular target: T1, human CD47, endogenous cell surface …; test: flow cytometry on Raji cells, MFI (FL4); remark: listed apart in the source
Protocol: as §2

[9] = molecular target: T1, human CD47, endogenous cell surface …; test: flow cytometry on Raji cells, MFI (FL4); remark: listed apart in the source
Protocol: as §2

[10] = molecular target: T1, human CD47, endogenous cell surface …; test: flow cytometry on Raji cells, MFI (FL4); remark: listed apart in the source
Protocol: as §2

[11] = molecular target: T1, human CD47, endogenous cell surface …; test: flow cytometry on Raji cells, MFI (FL4); remark: listed apart in the source
Protocol: as §2

[12] = molecular target: T1, human CD47, endogenous cell surface …; test: apparent KD, flow cytometry on Raji cells, non-linear fit of median fluorescence; remark: listed apart in the source
Protocol: as §2

[13] = molecular target: human CD47, endogenous cell surface form (Raji, CCRF-CEM cells) (human) (UniProt Q08722); test: cell-based or functional assay
[14] = molecular target: human CD47, endogenous cell surface form (Raji, CCRF-CEM cells) (human) (UniProt Q08722); test: flow cytometry on CCRF-CEM cells, FITC anti-mouse IgG, MFI-FL1
[15] = molecular target: human CD47, endogenous cell surface form (Raji, CCRF-CEM cells) (human) (UniProt Q08722); test: apparent KD, flow cytometry on Raji cells, non-linear fit of median fluorescence
[16] = molecular target: human CD47, endogenous cell surface form (Raji, CCRF-CEM cells) (human) (UniProt Q08722); test: flow cytometry blocking: SIRPa-Fc binding to CCRF-CEM cells with rising antibody
[17] = molecular target: T1, human CD47, endogenous cell surface …; test: flow cytometry on Raji cells, MFI (FL4); remark: listed apart in the source
Protocol: as §2

[18] = molecular target: T1, human CD47, endogenous cell surface …; test: flow cytometry on Raji cells, MFI (FL4); remark: listed apart in the source
Protocol: as §2

[19] = molecular target: T1, human CD47, endogenous cell surface …; test: apparent KD, flow cytometry on cell surface CD47, non-linear fit of median fluorescence
Protocol: Apparent affinities were determined by non-linear fits (Prism Graphpad Software) of the median fluorescence intensities at various antibody concentrations.

[20] = molecular target: T1, human CD47, endogenous cell surface …; test: flow cytometry blocking: SIRPa-Fc binding to CCRF-CEM cells with rising antibody (method of Example 3)

B1: murine CD47 antibody 2A1 (antibody, mouse IgG1, V domains shown)
VH: EVQLQQSGAELVRSGASVKLSCTASGFNIKDYYLHWVKQRPEQGLEWIGWIDPDNGDTEFAPKFQGKATMTADTSSNTAYLQLSSLTSEDTAVYYCNAAYGSSSYPMDYWGQGTSVTV
VL: DIKMTQSPSSLYASLGERVTITCKASQDIHRYLSWFQQKPGKSPKILIYRANRLVDGVPSRFSGSGSGQDYSLTISSLEYEDMGIYYCLQYDEFPYTFGGGTKLEMK
notes: Hybridoma-derived mouse IgG1; also called 2A1-mIgG1; 2A1mIgG1
EC50 (read off the curve) [1]: ~0.4 nM
Kd [2]: 0.0936 nM
IC50 (read off the curve) [3]: ~0.7 nM
IC50 (read off the curve) [4]: ~5 nM
EC50 (read off the curve) [5]: ~0.4 nM
EC50 (read off the curve) [6]: ~0.4 nM

B2: chimeric 2A1 antibody (2A1-xi) (antibody, V domains shown)
VH: B1 VH
VL: B1 VL with M106I
EC50 (read off the curve) [7]: ~0.2 nM
EC50 (read off the curve) [8]: ~0.05 nM
EC50 (read off the curve) [9]: ~0.1 nM
EC50 (read off the curve) [10]: ~0.05 nM
EC50 (read off the curve) [11]: ~0.1 nM
Kd [2]: 0.078 nM
Kd [12]: 0.0364 nM

B3: murine 9E4 antibody (antibody, mouse IgG1, V domains shown)
VH: EVQLRQSGPELVKPGASVKISCKASGYSFTDYYMYWVKQSRVRSLAWIGRINPYTGATGYDQNFKDKASLIVDKSSSTAYMELRSLTSEDSAVYYCARGRNRYDGWFAYWGQGTLVTV
VL: EIQMTQTTSSLSASLGDRVTISCRASQDISNYLNWYQQKPDGTVKLLIYYTSRLHSGVPSRFSGSGSGTDYSLTISNLDQEDIATYFCQQGNALPPTFGGGTNLEIK
EC50 (read off the curve) [1]: ~0.09 nM

B5: humanized antibody AB2.05 (human IgG1) (antibody, V domains shown)
VH: QMQLVQSGAEVKKTGSSVKVSCKASGFNIKDYYLHWVRQAPGQALEWMGWIDPDNGDTEYAQKFQDRVTITRDRSMSTAYMELSSLRSEDTAMYYCNAAYGSSSYPMDYWGQGTTVTV
VL: NIQMTQSPSAMSASVGDRVTITCKASQDIHRYLSWFQQKPGKVPKHLIYRANRLVDGVPSRFSGSGSGTEFTLTISSLQPEDFATYYCLQYDEFPYTFGGGTKVEIK
EC50 (read off the curve) [7]: ~0.3 nM
EC50 (read off the curve) [17]: ~0.2 nM
EC50 (read off the curve) [8]: ~0.1 nM
EC50 (read off the curve) [18]: ~0.2 nM
EC50 (read off the curve) [11]: ~0.1 nM

B6: humanized antibody AB6.12-IgG4PE (antibody, V domains shown)
VH: B5 VH with N55Q
VL: B5 VL with D56S
notes: Igkappa light chain; also called AB6.12-hIgG4PE
Kd [19]: 0.0346 nM
IC50 (read off the curve) [20]: ~0.3 nM

B8: humanized antibody AB6.12 (human IgG1) (antibody, V domains shown)
VH: B5 VH with N55Q
VL: B5 VL with D56S
notes: also called AB6.12-IgG1; AB6.12-hIgG1
Kd [12]: 0.0399 nM
Kd [19]: 0.0386 nM
IC50 (read off the curve) [20]: ~0.3 nM

Results, then the binder that gave them:

phagocytosis of CFSE-labeled CCRF-CEM tumor cells by human monocyte derived macrophages [13]: > 66.7 pM
EC50 (read off the curve) [14]: 3 nM
Kd [15]: 3.79 nM
IC50 (read off the curve) [16]: 9 nM
B4: B6H12 CD47 antibody (antibody, from another filing, V domains shown)
VH: EVKLVESGGDLVKPGGSLKLSCAASGFTFSGYGMSWVRQTPDKRLEWVATITSGGTYTYYPDSVKGRFTISRDNAKNTLYLQIDSLKSEDTAIYFCARSLAGNAMDYWGQGTSVTVSS
VL: DIVMTQSPATLSVTPGDRVSLSCRASQTISDYLHWYQQKSHESPRLLIKFASQSISGIPSRFSGSGSGSDFTLSINSVEPEDVGVYYCQNGHGFPRTFGGGTKLEIK

Kd [19]: 0.0357 nM
IC50 (read off the curve) [20]: ~0.4 nM
B7: humanized antibody AB6.12-IgG4P (antibody, V domains shown)
VH: B5 VH with N55Q
VL: B5 VL with D56S
notes: Igkappa light chain; also called AB6.12-hIgG4P

binding result [10]: binds
B9: AB16.05 (antibody, V domains shown)
VH: B5 VH with F27Y, N28T, I29F, D31Y
VL: B5 VL
